The target in series [1] is T1, MSI1 RRM1-RRM2 tandem (Homo sapiens, UniProt O43347 1-200). As to the kind of experiment: SPR; KD1, bivalent analyte model; SPR, 3'-biotinylated RNA immobilized on dextran sensor chip, protein as analyte; running buffer, salt, pH and temperature not in the material. The note with it: protein: recombinant, label: 3'-biotin. For orientation: Surface plasmon resonance follows binding to a sensor surface in real time, without labels.

The target in series [2] is T1, MSI1 RRM1-RRM2 tandem. Kind of series: SPR; KD1 monovalent step, new model; SPR, 3'-biotinylated RNA immobilized on dextran sensor chip, protein as analyte; running buffer, salt, pH and temperature not in the material. Conditions: protein: recombinant, label: 3'-biotin.
The target in series [3] is T2, MSI1 RRM1 (Homo sapiens, UniProt O43347 1-103). Kind of series: SPR; 1:1 with mass transport; SPR, 3'-biotinylated RNA immobilized on dextran sensor chip, protein as analyte; running buffer, salt, pH and temperature not in the material. The note with it: protein: recombinant, tags: N-terminal Strep-tag, label: 3'-biotin.
The target in series [4] is T3, MSI1 RRM2 (Homo sapiens, UniProt O43347 104-200). The series is described as above. Conditions: protein: recombinant, tags: C-terminal Strep-tag, label: 3'-biotin.
Series [5] deals with T1, MSI1 RRM1-RRM2 tandem. Kind of series: SPR; KD1, induced fit model; SPR, 3'-biotinylated RNA immobilized on dextran sensor chip, protein as analyte; running buffer, salt, pH and temperature not in the material. Conditions: protein: recombinant; label: 3'-biotin; linear, single UAG motif.
Series [6] addresses T1, MSI1 RRM1-RRM2 tandem. As to the kind of experiment: SPR; KD1, bivalent analyte model (Table 3 prints 41); SPR, 3'-biotinylated RNA immobilized on dextran sensor chip, protein as analyte; running buffer, salt, pH and temperature not in the material. The note with it: protein: recombinant; label: 3'-biotin; linear, single UAG motif.
In series [7] the target is T1, MSI1 RRM1-RRM2 tandem. As to the kind of experiment: SPR; KD1 monovalent step, new rapid 2:1 model; SPR, 3'-biotinylated RNA immobilized on dextran sensor chip, protein as analyte; running buffer, salt, pH and temperature not in the material. The note with it: protein: recombinant; label: 3'-biotin; linear, single UAG motif.
For series [8], the target named is T1, MSI1 RRM1-RRM2 tandem. As to the kind of experiment: SPR; 1:1 model (poor fit); SPR, 3'-biotinylated RNA immobilized on dextran sensor chip, protein as analyte; running buffer, salt, pH and temperature not in the material. The note with it: protein: recombinant; label: 3'-biotin; linear, single UAG motif.
For series [9], the target named is T2, MSI1 RRM1. Kind of series: SPR; 1.9-500 nM; SPR, 3'-biotinylated RNA immobilized on dextran sensor chip, protein as analyte; running buffer, salt, pH and temperature not in the material. Conditions: protein: recombinant; tags: N-terminal Strep-tag; label: 3'-biotin.
The target in series [10] is T3, MSI1 RRM2. Described as above. The note with it: protein: recombinant; tags: C-terminal Strep-tag; label: 3'-biotin.
For series [11], the target named is T1, MSI1 RRM1-RRM2 tandem. Kind of series: SPR; 7.8-250 nM; SPR, 3'-biotinylated RNA immobilized on dextran sensor chip, protein as analyte; running buffer, salt, pH and temperature not in the material. Conditions: protein: recombinant; label: 3'-biotin.

T1 sequence (O43347 1-200): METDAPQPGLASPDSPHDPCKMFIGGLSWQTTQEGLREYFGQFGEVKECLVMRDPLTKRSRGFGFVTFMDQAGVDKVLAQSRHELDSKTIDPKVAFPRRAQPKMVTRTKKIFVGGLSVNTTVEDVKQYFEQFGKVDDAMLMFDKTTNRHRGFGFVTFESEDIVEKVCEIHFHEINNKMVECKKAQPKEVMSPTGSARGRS
T2 sequence (O43347 1-103): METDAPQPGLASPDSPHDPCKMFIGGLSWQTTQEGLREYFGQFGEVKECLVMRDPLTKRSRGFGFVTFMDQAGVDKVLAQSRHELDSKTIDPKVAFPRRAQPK
T3 sequence (O43347 104-200): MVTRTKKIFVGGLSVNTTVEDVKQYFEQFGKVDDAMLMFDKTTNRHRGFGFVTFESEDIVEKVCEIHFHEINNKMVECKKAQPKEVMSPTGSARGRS

B1: RNA-L1a (ssRNA)
RNA: UUGUCAGUUACCCCUU
On to B1, for which the Kd with MSI1 RRM1-RRM2 tandem [1] (linear) was 1410 nM; in the series with MSI1 RRM1-RRM2 tandem [2] (linear), 1170 nM; with MSI1 RRM1 [3] (linear) it was 151 nM; in the series with MSI1 RRM2 [4] (linear) it was 123 nM.

B2: RNA-HP2b (structured_RNA)
RNA: CACUCUGUAGUAUGUAGGGUUUAUUU
On to B2, for which the Kd with MSI1 RRM1-RRM2 tandem [1] (potential hairpin) came to 144 nM; with MSI1 RRM1-RRM2 tandem [2] (potential hairpin), 49 nM; with MSI1 RRM1 [3] (potential hairpin), 33 nM; with MSI1 RRM2 [4] (potential hairpin), 26 nM.

B3: RNA-L1 (ssRNA)
RNA: UUGUUAGUUACCCCUU
Take B3: the Kd with MSI1 RRM1-RRM2 tandem [5] worked out at 24 nM; with MSI1 RRM1-RRM2 tandem [6], 42 nM; with MSI1 RRM1-RRM2 tandem [7] it was 58 nM; with MSI1 RRM1-RRM2 tandem [8], 2 nM; in the series with MSI1 RRM1 [3] (linear, single UAG motif), 47 nM; with MSI1 RRM2 [4] (linear, single UAG motif), 25 nM.

B4: RNA C (ssRNA)
RNA: CGGCGCCGC
For B4, the binding result in the series with MSI1 RRM1 [9], with MSI1 RRM2 [10] and with MSI1 RRM1-RRM2 tandem [11] was “no binding” in each case.

B5: RNA-HP2a (structured_RNA)
RNA: AAGCGUUAGUUAUUUAGUCGCUU
On to B5, for which the Kd with MSI1 RRM1-RRM2 tandem [1] (potential hairpin) came out at 45 nM; with MSI1 RRM1-RRM2 tandem [2] (potential hairpin), 77 nM; with MSI1 RRM1 [3] (potential hairpin) it was 22 nM; in the series with MSI1 RRM2 [4] (potential hairpin), 37 nM.
